Measurements from publication PMC9319256, “Human Enzyme PADI4 Binds to the Nuclear Carrier Importin α3” (Cells, 2022).

How the values were obtained:
[1] = target: PADI4 (peptidyl-arginine deiminase 4), intact (human) (UniProt Q9UM07); experiment: other fluorescence titration; importin species 0-25 µM added to 3 µM PADI4; 20 mM Tris pH 7.5, 5 mM TCEP, 150 mM NaCl, 5% glycerol; 25 °C; fluorescence at 330 nm
[2] = target: ΔImpα3, truncated importin α3 lacking the importin β-binding (IBB) domain (human); experiment: BLI; BLItz; His-tagged Impα3 or ΔImpα3 immobilised on His-tag biosensors at 0.3 µM; peptides 1-7 µM; manufacturer's buffer; 25 °C; pseudo-first-order plots; apparent
[3] = target: human importin α3 (Impα3), intact (human); experiment: as above
[4] = target: ΔImpα3, truncated importin α3 lacking the importin β-binding (IBB) domain (human); experiment: ITC; PADI4 or peptide (100 µM) in the syringe titrated into importin (10 µM) in the cell; 20 mM Tris pH 7.5, 5 mM TCEP, 150 mM NaCl, 5% glycerol; 25 °C; single-site model
[5] = target: human importin α3 (Impα3), intact (human); experiment: as above
[6] = target: NLS1-PADI4 peptide (human); experiment: translational diffusion NMR (DOSY); 100 µM peptide; 100 mM sodium phosphate, pH 7.0; 10 °C; dioxane as reference
[7] = target: human importin α3 (Impα3), intact (human); experiment: ITC; PADI4 or peptide (100 µM) in the syringe titrated into importin (10 µM) in the cell; 20 mM Tris pH 7.5, 5 mM TCEP, 150 mM NaCl, 5% glycerol; 25 °C; single-site model; remark: listed apart in the source

Chain of PADI4 (peptidyl-arginine deiminase 4), intact (Q9UM07 whole entry): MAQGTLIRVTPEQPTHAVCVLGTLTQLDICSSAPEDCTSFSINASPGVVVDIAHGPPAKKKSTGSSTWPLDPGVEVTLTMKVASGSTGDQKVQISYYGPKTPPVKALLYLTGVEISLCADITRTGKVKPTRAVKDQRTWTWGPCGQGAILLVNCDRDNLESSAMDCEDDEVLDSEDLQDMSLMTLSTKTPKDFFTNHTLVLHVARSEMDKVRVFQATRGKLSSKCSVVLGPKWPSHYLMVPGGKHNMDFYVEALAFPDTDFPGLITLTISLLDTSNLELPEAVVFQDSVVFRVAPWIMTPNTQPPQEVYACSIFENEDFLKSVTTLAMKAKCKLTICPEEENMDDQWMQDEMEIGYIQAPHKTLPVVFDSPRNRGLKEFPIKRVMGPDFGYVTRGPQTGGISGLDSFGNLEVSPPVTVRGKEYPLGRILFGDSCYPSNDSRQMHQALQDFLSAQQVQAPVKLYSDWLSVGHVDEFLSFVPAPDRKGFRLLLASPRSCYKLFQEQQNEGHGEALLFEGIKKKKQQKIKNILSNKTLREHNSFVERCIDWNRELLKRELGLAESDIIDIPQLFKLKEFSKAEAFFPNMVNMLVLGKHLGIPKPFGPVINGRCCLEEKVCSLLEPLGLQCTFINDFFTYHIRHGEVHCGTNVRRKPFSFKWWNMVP
Chain of PADI4 (peptidyl-arginine deiminase 4), intact (human) (Q9UM07 whole entry, the tested form may be a part): as the sequence (Q9UM07 whole entry) above

| Substance | Kd [1] | Kd [2] | koff [2] | kon [2] | Kd [3] | koff [3] | kon [3] | Ka [4] | Kd [4] | dH [4] | stoichiometry N [4] | Ka [5] | Kd [5] | dH [5] | stoichiometry N [5] | stoichiometry N [6] | Kd [7] |
| --- | --- | --- | --- | --- | --- | --- | --- | --- | --- | --- | --- | --- | --- | --- | --- | --- | --- |
| human importin α3 (Impα3), intact (natural protein) | 3.9 µM | – | – | – | – | – | – | – | – | – | – | – | – | – | – | – | – |
| ΔImpα3, truncated importin α3 lacking the importin β-binding (IBB) domain (domain or fragment) | 6 µM | – | – | – | – | – | – | – | – | – | – | – | – | – | – | – | – |
| NLS1-PADI4 peptide | – | 4 µM | 0.046 s⁻¹ | 11000 M⁻¹ s⁻¹ | 18 µM | 0.0685 s⁻¹ | 3700 M⁻¹ s⁻¹ | 650000 M⁻¹ | 1.5 µM | -8.7 kcal/mol | 1.22 | 230000 M⁻¹ | 4.3 µM | -21.3 kcal/mol | 1.24 | 6 | 4.4 µM |
| PADI4 (peptidyl-arginine deiminase 4), intact (from UniProt Q9UM07 1-663) (enzyme) | – | – | – | – | – | – | – | 780000 M⁻¹ | 1.3 µM | -38.4 kcal/mol | 0.84 | 210000 M⁻¹ | 4.8 µM | -65.5 kcal/mol | 0.97 | – | – |
